Measured values reported in the domain aggregation screens of Martell et al. (2025).

Test: soluble fraction after stress (log2 fold change); higher = more stays soluble; pooled small domains, quantitative proteomics
Conditions: stress: 50 degC
Summary of the method: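 Each library was heated to 50°C as a stress step. The libraries, made up of small protein domains, were pooled and analysed at high throughput by quantitative proteomics. The reported value is the base-two logarithm of the fold change in each protein's soluble amount after stress, taken as a measure of aggregation propensity. The higher the value, the more protein stays in solution.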

**Q.** Which “soluble fraction (log2)” value does the source give for “HMKAGAVFNEGDVLYPKIGGLKLMAAAGEGGKVVATLAKTDEMIYMGEEQSGFVKVESGSGSGWVKKILVA” here?
**A.** 0.366

**Q.** With “HMVVNERIKKLRRSLDLTQQEFADRIGVKRNTIANYEIGRNEPIDSVLELIVREFGVSKQWLLDGTGEMF” as the sequence, how does the “soluble fraction (log2)” value read?
**A.** -0.55

**Q.** Which “soluble fraction (log2)” value does the source give for “HMVVYDAELLLNINPGMSYEEVKEMLGDPGMIIAGNDAENSVYRWSTGGISFMGRFENGALIRKSIISP” here?
**A.** -0.621

**Q.** With “HMIYQNVINLLKNRLNSSIYNIGDLLPSEKELAEHYDVSRNTLRKALKTLEEEGMIERRHGSGTYLRNK” as the sequence, how does the “soluble fraction (log2)” value read?
**A.** -0.969

**Q.** For “HMSFMPDPSIHDAITYTVRSGDYLGKISTTFGVKVSDLQKWNSIKSNIIYPGQKLTVWVSSNKRESLQ”, which “soluble fraction (log2)” value is on record?
**A.** -1.31

**Q.** Which “soluble fraction (log2)” value does the source give for “HMDPTVSGQTGSVVREIRPGVPGEVELSVPLYGIRRWQAMADGILAEGTRVTVIQAEGVRLSVRPV” here?
**A.** -0.0839

**Q.** Which “soluble fraction (log2)” value does the source give for “HMGLPPIATGVNDNMSFSQAFAAARAEVGAGGAFEWHGRVYGTYYKNEWDGMSAQERHDFEIAAIRGS” here?
**A.** -0.166

**Q.** With “HMKVRDTQYIIEAAISKNVIRKSKNIYYYGTDIIGRSLEDAIASLNDKKNQDIKMTILQEIES” as the sequence, how does the “soluble fraction (log2)” value read?
**A.** -0.493

**Q.** For “HMDPVATLTPREREVLELMAEGRTNAGIAEAMVVTEGAVEKHIQRIFAKLGLHADGGVHRRVAAVLALLG”, which “soluble fraction (log2)” value is on record?
**A.** -1.01

**Q.** Which “soluble fraction (log2)” value does the source give for “HMIAVSQEQIKQIIVDDPSFHDANGKFSQALLTQYLNQRRMSEDQFVEEIRDQFLFQNLQNLVQNG” here?
**A.** 0.0233

**Q.** For “HMSKTQYTFKEVGSQFQLFAPSTKHTIMISADHPKYGWLTNQDQGRVINVYDTGKMTSSQDYYGLYKEVT”, which “soluble fraction (log2)” value is on record?
**A.** -0.155

**Q.** With “HMSIGLEGFVGKLGISTSDLRPSGWGEFDAKKLFVVTEGEFVDRKEKIEILSVDGNRILVRKIS” as the sequence, how does the “soluble fraction (log2)” value read?
**A.** -0.751

**Q.** With “HMIADPLVINKLMDSMALAINDYNPDSVEPVLDELRQYFSENQLRELSKAMDDFDFDEALNALTLLRT” as the sequence, how does the “soluble fraction (log2)” value read?
**A.** -0.382

**Q.** Which “soluble fraction (log2)” value does the source give for “HMGAVVSPMPGVILDIKVKEGDSVSEGQTVIILEAMKMENEIVSEFTGTVSAIRVKKGDTVDTDAVLVEI” here?
**A.** -0.393

**Q.** With “HMPTITSPMVGTFYRAPSPGAAPFIEVGDTVKKGQVIGIIEAMKLLNEVEADKDGVVQAFAAENGEL” as the sequence, how does the “soluble fraction (log2)” value read?
**A.** 0.262

**Q.** Which “soluble fraction (log2)” value does the source give for “HMAQVSDDAELEKWADTAIDEHPKPVEEYRAGNAASINFLMGQVMKMSRGKANPGAVMQILKQKLD” here?
**A.** 0.109

**Q.** With “HMNVPFGYTIKDGLLVEQPDEKAILDNILTWKKGQMTVAEIAKKTGMETWKIYGILNYWRNK” as the sequence, how does the “soluble fraction (log2)” value read?
**A.** -0.875

**Q.** With “HMKQPNSYGSVHKLPGKRRKPWRVRKTSGWLLDEQSGTVKQQYITIGYYATKQEALIALADYNENP” as the sequence, how does the “soluble fraction (log2)” value read?
**A.** -1.62

**Q.** For “HMGIERTNADTSFSVNVYGKELIITSNKPLVVNIYAIDGTLVRTEQVTIGVNTVSGLPSGIYVVGQQKVVI”, which “soluble fraction (log2)” value is on record?
**A.** 0.297

**Q.** For “HMAMNLQETVLMQLRDLILRGTFEPGQRLSEQPLAERLKASRTPVRSALVTLEQEGLIEASETGKYLVRQ”, which “soluble fraction (log2)” value is on record?
**A.** -0.421

**Q.** With “HMNIDNTWQPSEDVVEILTRSGINEDFINELIPEFIVYWTERPGTLVSYNSKFIEHVRLKWAQHSAEI” as the sequence, how does the “soluble fraction (log2)” value read?
**A.** 0.0597

**Q.** With “HMRTSPGADYEKTYYTIQSGDNLGAIAEKMGVSVADLKDWNDISGTKIYAGKKLVIYVKKGST” as the sequence, how does the “soluble fraction (log2)” value read?
**A.** 0.183

**Q.** Which “soluble fraction (log2)” value does the source give for “HMTKSTLQRQKIIADLIESGNISSQNQLKGLLKKNSLLITQATLSRDLSELGAIKKRQKDGLLVYVLPK” here?
**A.** -0.511

**Q.** For “HMDGRIRFRHAALHDPDVAARLHDYLTTSLPGVRSARVNSQTGSLLLEYDPEVLDRSTLLDLAARAESLL”, which “soluble fraction (log2)” value is on record?
**A.** -0.219

**Q.** For “HMYVTGSAIRRLREKRKLTQAQLAAALSVSDKTVSKWETARGLPDITLLEPLARALQVSVPELLSGEEV”, which “soluble fraction (log2)” value is on record?
**A.** -0.255

**Q.** With “HMQAPIFMNETDGKWYFREKYLNDNHEIAYRVHPEGYDQMEDALRNSVNALNEFAAEMKELRKQV” as the sequence, how does the “soluble fraction (log2)” value read?
**A.** -0.0683

**Q.** With “HMQDEAQLSMSNKYIFEGNSIVKDNFIEAEKKYRLGVSAKPNNAVGSYNLANAYYNSKLYDEAMLRLL” as the sequence, how does the “soluble fraction (log2)” value read?
**A.** 0.272

**Q.** Which “soluble fraction (log2)” value does the source give for “HMLDPYNVLGVPRDAGMDEIKKAYRKLSRTYHPDANIDNPNKAQAEEKFKQIQEAYQQIVKERTE” here?
**A.** -0.384

**Q.** For “HMPNGEAYQRFTYENDILEGRFEEWDSLGTDIVKGDYTAGVRHKKWLYYDSEGRRDKFVFLDMDSI”, which “soluble fraction (log2)” value is on record?
**A.** 0.0763

**Q.** Which “soluble fraction (log2)” value does the source give for “HMEAEQLEAIRSALQQLSDMNRTVFNLHVVDGYKHEEIAAMLNITTGTSKAHLHRAKKRLRELID” here?
**A.** -0.975
